Test results as given in the supplement of paper PMC7877785.
± gives the uncertainty stated by the source.

Test: self-splicing fitness, log relative to wild type (ln ratio); higher = more splicing; Tetrahymena group I intron in knt gene, E. coli kanamycin selection, DiMSum; sequences stand for … in CUCUCU…GGAGGGAAAAGUUAUCAGGCAUGCACCUGGUAGCUAGUCUUUAAACCAAUAGAUUGCAUCGGUUUAAAAGGCAAGACCGUCAAAUUGCGGGAAAGGGGUCAACAGCCGUUCAGUACCAAGUCUCAGGGGAAACUUUGAGAUGGCCUUGCAAAGGGUAUGGUAAUAAGCUGACGGACAUGGUCCUAACCACGCAGCCAAGUCCUAAGUCAACAGAUCUUCUGUUGAUAUGGAUGCAGUUCACAGACUAAAUGUCGGUCGGGGAAGAUGUAUUCUUCUCAUAAGAUAUAGUCGGACCUCUCCUUAAUGGGAGCUAGCGGAUGAAGUGAUGCAACACUGGAGCCGCUGGGAACUAAUUUGUAUGCGAAAGUAUAUUGAUUAGUUUUGGAGUACUCGUGGUCG
In short: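 The eight P1ex-region nucleotides of an intron in the knt kanamycin-resistance gene on pET-22b(+) were all randomised and the library put into E. coli BL21(DE3). Six replicate transformations were grown overnight at 37°C or 30°C on LB agar with or without 25 μg/mL kanamycin, together with 100 μg/mL carbenicillin, 50 μM IPTG and 0.2% rhamnose. Colonies were pooled and amplicon-sequenced on an Illumina HiSeq 2500. Fitness from DiMSum is the error-weighted combination of wild-type-normalised replicate fold changes, kanamycin over none.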

Sequence	self-splicing fitness (ln) (30 °C)	self-splicing fitness (ln) (37 °C)
UUACAGCAAUAUUACGAACU	-2.26 ± 0.15	-0.279 ± 0.13
UUACAGCAAUAUUACGAAUC	-3.27 ± 0.27	-2.13 ± 0.3
UUACAGCAAUAUUACGACGA	-0.196 ± 0.077	0.136 ± 0.12
UUACAGCAAUAUUACGAGCA	-1.65 ± 0.14	-0.698 ± 0.11
UUACAGCAAUAUUACGAGGA	-2.24 ± 0.19	-0.838 ± 0.15
UUACAGCAAUAUUACGCACU	-0.534 ± 0.12	-0.572 ± 0.14
UUACAGCAAUAUUACGCAUU	-2.73 ± 0.17	-1.52 ± 0.14
UUACAGCAAUAUUACGCCUA	0.181 ± 0.11	0.542 ± 0.12
UUACAGCAAUAUUACGCUUG	-1.23 ± 0.12	-0.126 ± 0.13
UUACAGCAAUAUUACGGAAA	-1.42 ± 0.14	-0.561 ± 0.14
UUACAGCAAUAUUACGGACC	-3.25 ± 0.4	-1.41 ± 0.32
UUACAGCAAUAUUACGGCAU	-2.01 ± 0.074	-0.552 ± 0.087
UUACAGCAAUAUUACGGCUU	-1.13 ± 0.082	-1.35 ± 0.1
UUACAGCAAUAUUACGGGGA	-0.473 ± 0.076	-0.871 ± 0.089
UUACAGCAAUAUUACGGGGC	-3.36 ± 0.48	-1.17 ± 0.45
UUACAGCAAUAUUACGGGUC	-3.67 ± 0.19	-2.51 ± 0.15
UUACAGCAAUAUUACGGUUC	-1.97 ± 0.1	-1.32 ± 0.11
UUACAGCAAUAUUACGGUUU	-0.925 ± 0.046	0.136 ± 0.066
UUACAGCAAUAUUACGUGUU	-3.43 ± 0.14	-2.13 ± 0.13
UUACAGCAAUAUUACGUUUA	-1.3 ± 0.11	-0.512 ± 0.12
UUAGAGCAAUAUUACGAGGA	-2.99 ± 0.34	-0.578 ± 0.32
UUAGAGCAAUAUUACGAUAA	-0.0105 ± 0.13	0.418 ± 0.18

Sequence	self-splicing fitness (ln) (30 °C)	self-splicing fitness (ln) (37 °C)
UUAGAGCAAUAUUACGAUAU	-1.72 ± 0.18	-1.54 ± 0.23
UUAGAGCAAUAUUACGCCUA	-0.268 ± 0.13	-0.0554 ± 0.19
UUAGAGCAAUAUUACGCGGC		-0.994 ± 0.26
UUAGAGCAAUAUUACGGAUG	-3.13 ± 0.19	-0.15 ± 0.15
UUAGAGCAAUAUUACGGCAU	-2.51 ± 0.28	-1.16 ± 0.23
UUAGAGCAAUAUUACGGGAA	-2.25 ± 0.16	-0.296 ± 0.16
UUAGAGCAAUAUUACGGGGC	-3.24 ± 0.44	
UUAGAGCAAUAUUACGGUCA	-1.7 ± 0.15	-1.34 ± 0.14
UUAGAGCAAUAUUACGUAAA	-2.69 ± 0.17	0.396 ± 0.13
UUAGAGCAAUAUUACGUACA	-1.7 ± 0.26	-1.51 ± 0.33
UUAGAGCAAUAUUACGUACG	-0.844 ± 0.11	-1.06 ± 0.17
UUAGAGCAAUAUUACGUGUA	-3.04 ± 0.18	-1.83 ± 0.17
UUAGAGCAAUAUUACGUUAA	-1.9 ± 0.13	-0.197 ± 0.15
UUAUAGCAAUAUUACGAAGG	-3.25 ± 0.39	-1.67 ± 0.33
UUAUAGCAAUAUUACGAUGA	-0.778 ± 0.12	0.516 ± 0.14
UUAUAGCAAUAUUACGCAAA	-2.85 ± 0.22	-1.51 ± 0.16
UUAUAGCAAUAUUACGCAGA	-2.06 ± 0.14	-1.25 ± 0.099
UUAUAGCAAUAUUACGCAGU		-1.61 ± 0.33
UUAUAGCAAUAUUACGCCUC	-2.77 ± 0.39	-1.59 ± 0.3
UUAUAGCAAUAUUACGGACG	-1.25 ± 0.38	-0.128 ± 0.34
UUAUAGCAAUAUUACGGACU	-2.04 ± 0.35	-0.965 ± 0.23
